Positions count from the first letter of the chain named. Like-named read-outs stand apart in the source and are kept apart here.
B1: P1030_AMBPA (other)
chain: GPPSIPGNESIPGCGDAGTTTAPEDNPKHYGTLTDKKGCTLPIIGTWMTAVDHQHLQGTRGERRGPTGKVNLPASCRKNCHGRQEILRDGIPCRKVVGNPKGSKKHLKSGCLRGKCLAGQCVNDGRRISCYVPRNITDTEPTPGLLAE
B2: CCL8_HUMAN (ligand, UniProt P80075 24-99, looked up)
chain: QPDSVSIPITCCFNVINRKIPIQRLESYTRITNIQCPKEAVIFKTKRGKEVCADPKERWVRDSMKHLDQIFQNLKP
B3: CXCL11_HUMAN (ligand)
chain: FPMFKRGRCLCIGPGVKAVKVADIEKASIMYPSNNCDKIEVIITLKENKGQRCLNPKSKQARLIIKKVERKNF
B4: P1243_AMBAM (other)
chain: RNHTEDNSTEYYDYEEARCACPARHLNNTNGTVLKLLGCHYFCNGTLCTAPDGYPCYNLTAQQVRTLTTYPNTSCAVGVCMKGTCVKNGTMEQCFKTP

Key:
CCL17_HUMAN = molecular target: T1, CCL17_HUMAN (human, UniProt Q92583 24-94); test: yeast surface display FACS
T1 sequence: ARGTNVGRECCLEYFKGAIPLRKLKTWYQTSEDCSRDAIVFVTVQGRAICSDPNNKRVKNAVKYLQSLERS

CCL20_HUMAN = CCL20_HUMAN (human, UniProt P78556 27-96); test: yeast surface display FACS
Sequence of CCL20_HUMAN (P78556 27-96 limits assumed): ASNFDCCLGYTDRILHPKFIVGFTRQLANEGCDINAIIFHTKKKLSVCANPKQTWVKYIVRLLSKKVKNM

CXCL12_HUMAN = CXCL12_HUMAN (human, UniProt P48061 22-89); test: yeast surface display FACS
Sequence of CXCL12_HUMAN (P48061 22-89 limits assumed): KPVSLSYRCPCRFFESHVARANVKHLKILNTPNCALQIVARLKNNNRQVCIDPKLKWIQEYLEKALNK

CCL3_HUMAN = molecular target: T2, CCL3_HUMAN (human, UniProt P10147 24-92); test: yeast surface display FACS
T2 sequence: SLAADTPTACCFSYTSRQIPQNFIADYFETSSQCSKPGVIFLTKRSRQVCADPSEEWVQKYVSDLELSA

CCL8_HUMAN = molecular target: B2; test: yeast surface display FACS
CCL5_HUMAN [1] = molecular target: T3, CCL5_HUMAN (human, UniProt P13501 24-91); test: yeast surface display FACS
T3 sequence: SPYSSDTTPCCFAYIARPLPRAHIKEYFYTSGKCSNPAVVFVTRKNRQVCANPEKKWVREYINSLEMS

CCL11_HUMAN = CCL11_HUMAN (human, UniProt P51671 24-97); test: yeast surface display FACS
Sequence of CCL11_HUMAN (P51671 24-97 limits assumed): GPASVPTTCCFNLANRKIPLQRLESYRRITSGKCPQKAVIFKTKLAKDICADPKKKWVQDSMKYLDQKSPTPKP

P546_AMBCA = molecular target: T4, P546_AMBCA (Amblyomma cajennense, UniProt A0A023FBW7 22-118); test: BLI
T4 sequence: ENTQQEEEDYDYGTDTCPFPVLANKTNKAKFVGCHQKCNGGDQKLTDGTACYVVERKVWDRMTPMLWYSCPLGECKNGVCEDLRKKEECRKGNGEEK

P1243_AMBAM = molecular target: B4; test: BLI
P1183_AMBTR = molecular target: T5, P1183_AMBTR (Amblyomma triste, UniProt A0A023G9N9 26-115); test: BLI
T5 sequence: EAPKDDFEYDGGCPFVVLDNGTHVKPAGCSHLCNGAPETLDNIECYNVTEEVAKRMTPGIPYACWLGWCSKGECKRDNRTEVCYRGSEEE

P983_AMBCA = molecular target: T6, P983_AMBCA (Amblyomma cajennense, UniProt A0A023FFB5 22-119); test: BLI
T6 sequence: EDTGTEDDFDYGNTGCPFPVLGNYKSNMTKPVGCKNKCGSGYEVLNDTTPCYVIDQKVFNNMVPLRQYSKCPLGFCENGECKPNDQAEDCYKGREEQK

P1180_AMBTR = molecular target: T7, P1180_AMBTR (Amblyomma triste, UniProt A0A023G6B6 26-116); test: BLI
T7 sequence: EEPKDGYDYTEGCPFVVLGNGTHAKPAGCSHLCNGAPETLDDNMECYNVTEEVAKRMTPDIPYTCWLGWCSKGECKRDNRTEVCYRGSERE

P974_AMBCA = molecular target: T8, P974_AMBCA (Amblyomma cajennense, UniProt A0A023FDY8 22-118); test: BLI
T8 sequence: T4 sequence with E8Q, S69E, E88D

P1181_AMBMA = molecular target: T9, P1181_AMBMA (Amblyomma maculatum, UniProt G3MIX6 26-115); test: BLI
T9 sequence: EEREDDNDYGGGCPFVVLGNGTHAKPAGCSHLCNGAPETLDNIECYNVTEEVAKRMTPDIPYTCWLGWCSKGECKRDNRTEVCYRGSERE

P467_RHIPU = molecular target: T10, P467_RHIPU (Rhipicephalus pulchellus, UniProt L7M8Z8 22-127); test: BLI
T10 sequence: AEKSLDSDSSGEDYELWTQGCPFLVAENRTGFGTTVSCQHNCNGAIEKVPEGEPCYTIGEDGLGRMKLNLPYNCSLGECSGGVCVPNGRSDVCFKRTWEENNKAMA

P672_RHIPU = molecular target: T11, P672_RHIPU (Rhipicephalus pulchellus, UniProt L7MC74 22-125); test: BLI
T11 sequence: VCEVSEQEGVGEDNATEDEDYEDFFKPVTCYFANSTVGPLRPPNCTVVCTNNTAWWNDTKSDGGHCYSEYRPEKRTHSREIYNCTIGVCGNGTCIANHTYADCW

P1182_AMBMA = molecular target: T12, P1182_AMBMA (Amblyomma maculatum, UniProt G3MJ83 27-115); test: BLI
T12 sequence: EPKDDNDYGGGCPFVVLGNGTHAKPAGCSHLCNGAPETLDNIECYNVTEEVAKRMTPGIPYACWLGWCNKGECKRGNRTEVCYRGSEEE

P985_AMBPA = molecular target: T13, P985_AMBPA (Amblyomma parvum, UniProt A0A023FT45 25-132); test: BLI
T13 sequence: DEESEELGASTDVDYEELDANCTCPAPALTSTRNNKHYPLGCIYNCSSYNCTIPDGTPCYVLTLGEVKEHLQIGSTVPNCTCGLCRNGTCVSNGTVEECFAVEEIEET

P991_AMBCA = molecular target: T14, P991_AMBCA (Amblyomma cajennense, UniProt A0A023FFD0 29-136); test: BLI
T14 sequence: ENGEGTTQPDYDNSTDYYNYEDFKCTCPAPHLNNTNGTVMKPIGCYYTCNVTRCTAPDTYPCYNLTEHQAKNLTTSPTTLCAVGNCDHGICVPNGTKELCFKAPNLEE

EVA1_RHISA = molecular target: T15, EVA1_RHISA (Rhipicephalus sanguineus, UniProt P0C8E7 21-114); test: BLI
T15 construct: also called Evasin-1
T15 sequence: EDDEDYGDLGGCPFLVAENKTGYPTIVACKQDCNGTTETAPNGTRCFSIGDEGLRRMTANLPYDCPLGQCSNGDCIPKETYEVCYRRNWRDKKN

P1156_IXORI = molecular target: T16, P1156_IXORI (Ixodes ricinus, UniProt V5HBW0 29-108); test: BLI
T16 sequence: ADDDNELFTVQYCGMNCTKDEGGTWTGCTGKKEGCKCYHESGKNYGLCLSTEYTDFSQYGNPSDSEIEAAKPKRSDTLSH

P1127_IXORI = molecular target: T17, P1127_IXORI (Ixodes ricinus, UniProt A0A0K8RJ67 29-108); test: BLI
T17 sequence: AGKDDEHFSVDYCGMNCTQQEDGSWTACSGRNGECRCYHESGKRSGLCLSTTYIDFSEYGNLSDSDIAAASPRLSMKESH

P1132_IXORI = molecular target: T18, P1132_IXORI (Ixodes ricinus, UniProt V5GZ08 29-106); test: BLI
T18 sequence: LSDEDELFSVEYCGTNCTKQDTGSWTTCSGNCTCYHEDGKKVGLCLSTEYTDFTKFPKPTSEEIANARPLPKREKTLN

P1166_IXORI = molecular target: T19, P1166_IXORI (Ixodes ricinus, UniProt A0A0K8RE99 25-110); test: BLI
T19 sequence: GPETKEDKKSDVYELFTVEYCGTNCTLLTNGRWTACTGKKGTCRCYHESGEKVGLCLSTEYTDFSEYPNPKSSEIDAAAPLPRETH

P1229_IXORI = molecular target: T20, P1229_IXORI (Ixodes ricinus, UniProt A0A0K8R4R9 32-108); test: BLI
T20 sequence: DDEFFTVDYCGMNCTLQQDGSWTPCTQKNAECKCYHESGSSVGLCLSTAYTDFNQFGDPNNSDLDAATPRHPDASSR

P1168_IXORI = molecular target: T21, P1168_IXORI (Ixodes ricinus, UniProt A0A0K8RCU3 25-106); test: BLI
T21 sequence: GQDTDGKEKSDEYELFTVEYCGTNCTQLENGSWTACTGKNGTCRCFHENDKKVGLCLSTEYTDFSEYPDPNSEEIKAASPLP

P1174_IXORI = molecular target: T22, P1174_IXORI (Ixodes ricinus, UniProt V5I3C5 28-104); test: BLI
T22 sequence: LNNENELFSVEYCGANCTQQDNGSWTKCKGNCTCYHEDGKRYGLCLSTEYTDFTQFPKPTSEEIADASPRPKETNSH

P1134_IXORI = molecular target: T23, P1134_IXORI (Ixodes ricinus, UniProt A0A0K8RAI0 32-135); test: BLI
T23 sequence: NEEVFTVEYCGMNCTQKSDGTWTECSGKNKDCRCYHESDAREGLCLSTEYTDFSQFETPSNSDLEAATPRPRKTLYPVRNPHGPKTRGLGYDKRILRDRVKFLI

P1095_IXORI = molecular target: T24, P1095_IXORI (Ixodes ricinus, UniProt A0A0K8RCE3 24-112); test: BLI
T24 sequence: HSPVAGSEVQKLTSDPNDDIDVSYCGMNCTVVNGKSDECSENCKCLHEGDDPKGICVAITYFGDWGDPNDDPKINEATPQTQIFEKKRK

P1170_IXORI = molecular target: T25, P1170_IXORI (Ixodes ricinus, UniProt A0A0K8RD51 29-102); test: BLI
T25 sequence: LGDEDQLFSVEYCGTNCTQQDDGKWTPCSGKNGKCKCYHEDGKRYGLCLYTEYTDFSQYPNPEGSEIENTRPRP

P1096_IXORI = molecular target: T26, P1096_IXORI (Ixodes ricinus, UniProt A0A0K8RKE4 24-114); test: BLI
T26 sequence: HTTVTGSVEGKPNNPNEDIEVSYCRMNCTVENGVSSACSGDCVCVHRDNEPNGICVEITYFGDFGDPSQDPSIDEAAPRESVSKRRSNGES

CCL23_HUMAN [2] = molecular target: T27, CCL23_HUMAN (human, UniProt P55773 22-120); test: BLI
T27 sequence: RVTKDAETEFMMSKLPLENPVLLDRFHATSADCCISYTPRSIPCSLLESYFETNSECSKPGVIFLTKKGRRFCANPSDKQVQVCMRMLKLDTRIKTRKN

CCL21_HUMAN [3] = molecular target: T28, CCL21_HUMAN (human, UniProt O00585 24-134); test: BLI
T28 sequence: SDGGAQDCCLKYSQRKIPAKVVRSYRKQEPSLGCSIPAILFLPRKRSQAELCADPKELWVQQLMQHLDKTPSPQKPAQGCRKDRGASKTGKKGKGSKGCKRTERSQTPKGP

CCL23_HUMAN [4] = molecular target: T27, CCL23_HUMAN; test: BLI; remark: listed apart in the source
CCL21_HUMAN [5] = molecular target: T28, CCL21_HUMAN; test: BLI; remark: listed apart in the source
CCL5_HUMAN [6] = molecular target: T3, CCL5_HUMAN; test: cell-based or functional assay

## B1
CCL17_HUMAN
  binding result: binds
CCL20_HUMAN
  binding result: binds
CXCL12_HUMAN
  binding result: binds
CCL3_HUMAN
  binding result: binds
CCL8_HUMAN
  binding result: binds
CCL5_HUMAN [1]
  binding result: binds
CCL11_HUMAN
  binding result: binds

## B2
P546_AMBCA
  Kd: 1.3 nM
P1243_AMBAM
  Kd: 21.9 nM
P1183_AMBTR
  Kd: 1100 nM
P983_AMBCA
  Kd: 7 nM
P1180_AMBTR
  Kd: 3.6 nM
P974_AMBCA
  Kd: 2.58 nM
P1181_AMBMA
  Kd: 14 nM
P467_RHIPU
  Kd: 2.85 nM
P672_RHIPU
  Kd: 3.7 nM
P1182_AMBMA
  Kd: 29 nM
P985_AMBPA
  Kd: 6.5 nM
P991_AMBCA
  Kd: 8.79 nM
EVA1_RHISA
  binding result: no binding (tested: 600 nM)

## B3
P1156_IXORI
  binding result: no binding (tested: 300 nM)
P1127_IXORI
  binding result: no binding (tested: 300 nM)
P1132_IXORI
  binding result: no binding (tested: 300 nM)
P1166_IXORI
  binding result: no binding (tested: 300 nM)
P1229_IXORI
  binding result: no binding (tested: 300 nM)
P1168_IXORI
  binding result: no binding (tested: 300 nM)
P1174_IXORI
  binding result: no binding (tested: 300 nM)
P1134_IXORI
  binding result: no binding (tested: 300 nM)
P1095_IXORI
  binding result: no binding (tested: 300 nM)
P1170_IXORI
  binding result: no binding (tested: 300 nM)
P1096_IXORI
  binding result: no binding (tested: 300 nM)

## B4
CCL23_HUMAN [2]
  Kd: 6.62 nM
CCL21_HUMAN [3]
  Kd: 6.54 nM
CCL23_HUMAN [4]
  Kd: 6.62 nM
CCL21_HUMAN [5]
  Kd: 6.54 nM
CCL5_HUMAN [6]
  IC50, THP1 cell migration: 7.87 nM

Source: patent US20240034757A1 (OXFORD UNIVERSITY INNOVATION, published 2024)
